Experiment: yeast display, Sf9 membrane polyspecificity reagent, FACS + sequencing; frameworks hold sequencing errors
Procedure, shortened: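 Using colony PCR, genes from sorted yeast display clones were amplified, then sequenced on MiSeq at 2 × 250 and filtered by CDR length. The clones had been stained with 10% biotinylated, detergent-solubilized Sf9 membrane reagent for 1 hour at 4 °C and sorted by FACS into low and high (top ~1%) gates on anti-HA and streptavidin fluorescence. Polyreactivity labels come from the gate of origin.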

| Sequence | polyreactivity (PSR sort gate) |
| --- | --- |
| QVQLVESGGGLVQAGGSLRLSCAASGSTLESYAMGWYRQAAGKERELVAAISKSGGRTYYADSVKGRFTISRDNAKNTVYLQMNSLKPEDTAVYYCAADSCTHLTYYWGQGTQVTVSS | high polyreactivity |
| QVQLVESGGGLVQEGGSLRLSCAASGFTLYGYTMGWYRQAPGKERELVAAISGSGGRTYYADSVKGRFTISRDNAKNTVYLQMNSLKPEVTEVYYCAADSRGTWYGYDYWGQGTQVTVSS | high polyreactivity |
| QVQLVESGGGLVQAGGSLRLSCAASGSIFNKYAMGWYRQAPGKEREFVAAITQGGGRTYYADSVKGRFTISRDNAKNTVYLQMNSLKPEDTAVYYCNAAVYSRARGSYRRRYDYWGQGTQVTVSS | high polyreactivity |
| QVQLQESGGGLVQAGDSQRLSCAASGNIFRFTDMGWYRQAPGKERELVAAINAGSTTYYADSVKGRFTISRDNAKNTVYLQMNSLKPEDTAVYYCAVYYLGSGTFGYWGQGAQVTVSS | high polyreactivity |
| QVQLVESGGGLVQAGGSLRLSCAASGRTFKKYAMGWYRPAPRKERELVAAITGSGGSTYYADSVKGRFTISRDNAKNTVYLQMNSLKPEDTAVYYCAAYAYGVWHSQDGGNYWGQGTQVTVSS | low polyreactivity |
| QVQLVESGGGLVQAGGSLRLSCAASGSTFLFYAMGWYRQAPGKERELVAAISSSGTSTYYADSVKGRFTISRDNAKNTVYLQMNSLKPEDTAVYYCAAVDPYERYVYWGQGTQVTVSS | low polyreactivity |
| QVQLVESGGGLVQAGGSLRLSCAASGITFRGYTMGWYRQAPGKERELVARIRSSDGSTYYADSVKGRFTISRDNAKNTVYLQMNSLKPEDTAVYYCNADRRGRALKYYSWGQGTQVTVSS | low polyreactivity |
| QVQLVESGGGLVQAGGSLRLSCAASGSTFHFYAMGWYRQAPGKESELVAAITWSGGTTYYADSVKGRFTISRDNAKNTVYFQMNSLKPEDTGVYYCATGQSVIYRYEYWGQGTQVTVSS | low polyreactivity |
| QVQLVESGGGLVQAGGSLRLSCAASGFTFYTNVMGWYRQAPGKERELVAAINSGGSTNYADSVKGRFTISRDNAKNTVYLQRNSLKPEDTAVYYCNKRGTEIGYDYWGQGTQVTVLS | low polyreactivity |
| QFQLVDSGGALVQAGGSLRLSCAASGFTFYPYAMGWYRQAPGKERELVAAISKRGGSTYYADSVKGRFTISRDHAKNTVYLQMNSLNPEDTAVYYCIAFFNGELYYWGQGTQVTVSS | high polyreactivity |
| QVQLVESGGGLVQAGGSLRLSCAASGFIFNYNAMGWYRQAPGKERELVAAIRTSSGSTYYADSVKGRFTISRDNAKNTVYLQMNSLKPEDTAVYYCAKTRYSTYSPIYYYWGQGTQVTVSS | high polyreactivity |
| QVQLVESRGGLVQAGGSLRLSFPASGFTQEFYAMGWYRQAPGKERELVASISSGGRTNYADSVKGRFTISRDNAKYTVYLQMNSLKPEDTAVYYFAAEYRSWGRYRYRFNYWGQGTQVTVSS | high polyreactivity |
| QVQLVESGGGLVQAGGSLRLSCAASGSIFSENTMGWYRQAPGKKRELVADITSGGSTNYADSVKGRFTISRDNAKNTVYLQMNSLKPEDTAVYYCAADYNGEYDYWGQGTQVTVSS | low polyreactivity |
| QVQLVESGGGLVQAGGSLRLSCAASGFTFGRNTMGWYRQAPGKERELVAAITRRGGTTHYADSVKGRFTISRDNAKNTVYLQMNSLKPEDTAVYYCAADPFNSYYGRYDYWGQGTQVTVSS | high polyreactivity |
| QVQLVESGGGLVQAGGSLRLSCAASGSTFRPYGMGWYRQAPGKERELVAAINSGDSTYYADSVKGRFTISRDNAKNTFYLQMNSLKPEDTAVYYCNADVWWDTWFLDGYDYWGQGTQVTVSS | high polyreactivity |
| QVQLVESGGGLVQAGGSLRLSCAASGSIFRGYVMGWYRQAPGKERELVAAIRWRGGDTRYADSVKGRFTISRDNAKNTVYLQMNSLKPEDTAVYYCAAQYRKTQYQKKYDYWGQGTQVTVSS | high polyreactivity |
| QVQLVESGGGLVQAGGSLRLSCAASGSIFGGYAMGWYRQAPGKERELVAAITSGGGSTYYADSVKGRFTISRDNAKNTVYLQMNSLKPEDTAVYYCAALQSHGVDYDYWGQGTQVTVSS | low polyreactivity |
| QVQLVESAGGLVQAGGSLRVICAASASTSVHNAMGWYRQAPGKERELVAAITSDGSTNYADSVKGRFTISRDNEKNTVYLLMYSLEPEDTAFYYCAALGWTYYVGYVSYSYGYWGQGTQVTVSS | low polyreactivity |
| QVQLVESGGGLVQAGGSLRLSCAASGRTFDLYAMGWYRQAPGKERELVARITNIDDSTYYADSVKGRFTISRDNAKNTVYLQMNSLKPEDTAVYYCNAASYSRGPARYDYWGQGTQVTVSS | high polyreactivity |
| QVQLVESGGGLVQAGGSLRLSCAASGSIFVYNDMGWYRPAPGKERELVAGIDWSGDRTYADSVKGRFTISRDNAKNTVYLQMNSLKPEDTAVYYCNADEWRWDEIIPYAVDYWGQGTQVTVSS | low polyreactivity |
| QVQLVESGGGLVQAGGSLRLSCAASGSIFKKYAMGWYRQAPGKERELVAAISKSGGSTYYADSVKGRFTISRDNAKNTVYLQMNSLKPDDTAVYYCAAAAGGSAYWDYDYWGQGTQVTVSS | low polyreactivity |
| QVQLVESGGGLVQAGGSLRLSCAASGIIFYYNAMGWYREAPGKEREFVASISSRGGSTYYADSVKGRFTISRDNSKNTVYLQMNSVKPEDTAVYYCAAAFDWRRQRYNYWGQGTQVTVTS | high polyreactivity |

| Sequence | polyreactivity (PSR sort gate) |
| --- | --- |
| QVQLVESGGGLVQAGGSLRLSCAASGFIFYRNAMGWYRQAPGKERELVAAISGSGGRTYYADSVKGRFTISRDNAKITVYLQMNSLNPEDTAVYYCNAGPLYRGEYDYWGQGTQVTVSS | high polyreactivity |
| QVQLVESGGGLVQAGGSLRLSCAASGRTLTRYAMGWYRQAPGKERELVATISRCGSTNYADSVKGRFTISRDNGKNTVYLQMNSLKPEDTAVYYCAARGRLTAEFDYWGQGTQVTVSS | low polyreactivity |
| QVQLEESGGGLFQAGGSLRLSCAASVSSYRSYARGWYRTATGKERELVAAISVSGGSTYYADSVKGRFTISRDNAKNTVFLQMNSLKPEDTAVYYCAASYVPSYAPGRYYYWGQGTQVTVSS | high polyreactivity |
| QVQLVESGGGLVQAGGSLSLICAASRLTFYLYAMGWYRQAPGKERELLAAISYSGGSTYYADSVKGRFTISRDNAKNTVYLQMNSLKPEDTAVYYCNALRAGTDSRRTYGSTYGYWGQGTQVTVSS | high polyreactivity |
| QVQRVESGGGLVQAGGSLRLSCAASGFTSLIYAMGWYRQAPGKESELVATITWGGGSTYADSVKGRFTISRDNAKNTVYLQMNSLKPEDTAVFYCIADIYDSWDYATVYSDRYDYWGQGTQVTVSS | low polyreactivity |
| QVQLVESAAGLVQAGGSLSLSCAASGFIFWRYAMGWYRQAPGKERELVAAISVSGTRTYYADSVKGRFTISRDNAKNTVYLQMNSLKPEDTAVYYCNAASRSFSSDRAFDYWGQGTQVTVSS | high polyreactivity |
| QGQLVESGGGLVQAGGSLRLSCAASGIIFEYYDMGWYRQAPGKERELVAAIDSGGSTYYADSVKGRFTISRDNAKNTVYLQMNSLKPEDTAVYYCAASRPPNTSNTGYGSWGQGTQVTVSS | low polyreactivity |
| QVQLVESGGGLVQAGGSLRLSCAASGRTFSIYAMGLYRQAPGKERELVAAISNGGRTKYADSVKGRFTISRDNAKNTVYLQMNSLKPEDTAVYYCAAETWYVAYGYWGQGTQVTVSS | high polyreactivity |
| QVQLVESGGGLVQAGGSLRLSCAASGRTFRTYTMGWYRQAPGKEREFVAAINKSGGTTNYADSVKGRFTISRDNAKNTVYLQMNSLKPEDTAVYYCAKRGRSTYGYDYWGQGTQVTVSS | high polyreactivity |
| QVQLVESGGGLVQAGGSLPLSCAASRRTLYTNTMGWYRQAPGKESELDAGISKRGGSTYYADSVKGRFTITRDTAKNTVYLQMNSRKPEDTAVYYCNAPVSYWSRFRSPIYEYWGQGTQVTVSS | high polyreactivity |
| QVQLVVSGGGLVQAGGRLRLSCAASGSSFVGYAMGWYRQAPGKERELVAAISRRGGSTYYADSVKGRFTISRDNAKNTVYLQMNRLKPEDTSVYYFAARFKVSYYNLYSYGYWRQGTQVTVSS | high polyreactivity |
| QVQLVESGGGLVQAGGSLRLSCAASGFTFYSYAMGWYRQAPGKERELVASISQSGGRTYYADSVKGRFTISRDNAKNTVYLQMNSLKPEDTAVYYCARQRSYGRSSYSYGYDYWGQGTQVTVSS | high polyreactivity |
| QVQLVESGGGLVQAGGSLRLSCAASGNIFGRYAMGWYRQAPGKERELVAAISSGDITYYADSVKGRFTISRDNAKNTVYLQMNSLKPEDTAVYYCAADSYWSVVYIKYDYWGQGTQVTVSS | low polyreactivity |
| QVQLVESGGGLVQAGGSLRLSCAASGSTFYSNAMGCYRQAPGKEREFVAAITGGDVRTYYADSVKGRFTISRDNAKNTVYLPMNSLKPEDTAVYFCATGPYIWPEWSPGFDYWGQGTQVTVSS | low polyreactivity |
| QVQLVESGGGLVQAGGSLRLSCAASGSTFVHNGMGWYRQAPGIDRELVGAITDGGSTYYADSVKGRFTISRDNAKNTVYLQMNSLKPEDTAVYYCAAGYSRYGYFRGYRYYYWGQGTQVTVSS | low polyreactivity |
| QVQLVESGGGLVQAGGSLRLSCAASGSIFNRYTMGWYRQAPGKEREFVAAIRNSGSRTYYADSVKRRFTISRDNAKNTVYLQMNSLKPEDTAVYYCAADGPLNSSESYYWGQGTQVTVSS | low polyreactivity |
| QVQLVESGGGLVQAGGSLRLSCAASGSTFAPNAMGWYRQAPGKERELVASIRRGGSTHYADSVKGRFTISRDNAKNTVYVQMNSLKPEDTAVYYCAKDVWRHYLNLYDYWGQGTQVTVSS | low polyreactivity |
| QVQLVESGGGLVQAGGSLRLSCAASGSIFKYNPMGWDRQAPGKERELVAAITYRGASTYYADSVKGRFTISRDNAKNTVYLQMNSLKPEDTAVYYCNAKVRKSRFYYWGQGTQVTVSS | high polyreactivity |
| QVQLVESGGGLVQAGRSLPLSCAASGRTFRPNAMGWYRQAPGKERELVAVSSWRGGRTYYADSVKGRFTISRDNAKNTVYLQMNSLKPEDTAVYYCAAGPTSRRWYDYWGQGTQVTVSS | high polyreactivity |
| QVQLVESGGGLVQAGGSLRLSCAASGSIFDFYAMGWDRQAPGKERELVAAISGSGGSTYYADSVKGRFTISRDNAKNTVYLQMNSLKPEDTAVYYCNAATYRTRHSNNGYWGQGTQVTVSS | low polyreactivity |
| QVQLVESGGGLVQAGGSLRLSCAASGSIFARYTMGWYRQAPGKERELVAAISSSGTSTYYADSVKGRFTISRDNAKNTVYLQMNSLKPEDTAVYYCAADWYYHYGYWGQGTQVTVSS | high polyreactivity |
